The assay deals with His-FliI(R33A) (Salmonella enterica) (UniProt P26465).

For the substance “His-FliI(R33A) (from UniProt P26465 1-456) (enzyme)”, the ATPase activity (Malachite Green assay, 4 mM ATP) at 17 to 85 nM FliI(R33A) (nmol of phosphate min^−1 μg^−1) came to 1.21.
